This note sets out measurements from the supplement of paper PMC10567573.

A short description of the data set: protein stability index of a GFP-peptide fusion (GPS, HEK-293T) (PSI 1-6); higher = more stable.
Setting [1] is: treatment: DMSO, c terminus: a fixed tail appended.
Where [2] appears, read: treatment: MLN4924 1 uM, 8 h, c terminus: a fixed tail appended.

± gives the standard deviation.
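Note: 24-mer peptide tiles fused after GFP, lentivirally expressed, FACS-sorted into six equal bins by GFP/DsRed ratio, decoded by Illumina sequencing, PSI is the read-weighted mean bin number.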

Regarding VVQGPDGRLELKPLLLRLPRICQR [FANCE], the protein stability index is, setting by setting: under setting [1], 2.35 ± 0.33; under setting [2], 2.45 ± 0.15.

On to VYHSYDLPWFRTLSWYFLLCVNYF [CDS1], for which the protein stability index runs as follows: under setting [1], 2.85 ± 0.42; under setting [2], 2.63 ± 0.51.

VYMFKNGSGDSGDSSEEESHRVVL [LYSMD4]: the protein stability index came out at 3.49 ± 0.32 under setting [1] and 3.33 ± 0.38 under setting [2].

For WDRNRRRGGGAAGAGGGGSGAGGG [KLHDC10], the protein stability index is, setting by setting: under setting [1], 5.16 ± 0.5; under setting [2], 5.3 ± 0.2.

In the case of WEEEEDHEKERPEHKSLESLADGG [FANCE], the protein stability index is, setting by setting: under setting [1], 5.46 ± 0.34; under setting [2], 5.53 ± 0.19.

Take WEPRRDMWVRFRAFEAARDLDACA [ZSWIM9]: the protein stability index runs as follows: under setting [1], 2.79 ± 0.34; under setting [2], 2.72 ± 0.2.

As to WFLVPISSVICNDITAYLFGFFFG [CDS1], the protein stability index under setting [1] turned out to be 2.75 ± 0.036 and the protein stability index under setting [2] came to 3.16 ± 1.

With WLISEEEKTQKNQCWKSLFIDTYS [FBXO3], the protein stability index reads like this: under setting [1], 2.16 ± 0.3; under setting [2], 2.45 ± 0.33.

As for WQLFLAHNIPLETIIPILQHLKYK [INTS3], the protein stability index is, setting by setting: under setting [1], 2.83 ± 0.44; under setting [2], 2.63 ± 0.59.

WRNIILMSLLHLGALYGITLIPTC [SCD] registered a protein stability index under setting [1] of 2.83 ± 0.19 and a protein stability index under setting [2] of 2.9 ± 0.42.

With WSPSPPATPEQGLSAFYLSYFDML [SPDEF], the protein stability index is, setting by setting: under setting [1], 2.14 ± 0.45; under setting [2], 2.33 ± 0.48.

Take WTTEQQQRFHEICSNLVKTRRRAV [ARL6IP1]: the protein stability index by setting is: under setting [1], 2.8 ± 0.2; under setting [2], 3.07 ± 0.41.

Turning to WYRPMYKAFRSDSSFNFFVFFFIF [SCAMP3], the protein stability index by setting is: under setting [1], 2.94 ± 0.34; under setting [2], 2.86 ± 0.54.

The sequence YAVLAAEPELQVGIDIMKTSFPGR [AASDHPPT] registered a protein stability index under setting [1] of 2.61 ± 0.28 and a protein stability index under setting [2] of 2.73 ± 0.4.

As to YCKTSDGRVVPESQCQMETKPLAI [ADAMTSL2], the protein stability index under setting [1] is 3.94 ± 0.33 and the protein stability index under setting [2] came to 4.32 ± 0.11.

Take YCLTCEVPTCSMCKVFGIHKACEV [TRIM63]: the protein stability index is 2.69 ± 0.45 under setting [1] and 2.8 ± 0.33 under setting [2].

As for YEAQDGRGPDNALLEATGGAAGRS [KCTD10], the protein stability index runs as follows: under setting [1], 5.37 ± 0.34; under setting [2], 5.41 ± 0.25.

Regarding YENCLQALADVEVKYIVERTMLDF [NLN], the protein stability index is 2.08 ± 0.28 under setting [1] and 2.22 ± 0.51 under setting [2].

Take YFGSFATVGLLWFAHHSLFLHVRK [TMEM175]: the protein stability index is, setting by setting: under setting [1], 3.17 ± 0.56; under setting [2], 3.15 ± 0.42.

Regarding YHRETEGEEQAQLLHVSSPNLASD [KCNA1], the protein stability index was 5.16 ± 0.3 under setting [1] and 5.21 ± 0.27 under setting [2].

As to YINFRHLYKQRRRRYGQKKKKIH [HACD3], the protein stability index was determined as 2.12 ± 0.29 (treatment: DMSO, c terminus: native) and 2.74 ± 0.55 (treatment: MLN4924 1 uM, 8 h, c terminus: native).

YKCLECGKAFSQNSGLINHQRIHT [ZNF24] returned a protein stability index under setting [1] of 4.95 ± 0.23 and a protein stability index under setting [2] of 4.57 ± 0.26.

In the case of YLLDYPNNLLSAPPPDVTQLTPPS [ANKRD17], the protein stability index turned out to be 3.23 ± 0.14 under setting [1] and 3.44 ± 0.2 under setting [2].

In turn, YLNGASVLPHKSIGESVPEPRIIM [GMPPB] had a protein stability index under setting [1] of 2.79 ± 0.35 and a protein stability index under setting [2] of 2.84 ± 0.34.

In the case of YNKPTDDIVLMAQALEKIFLQKVA [BRD3], the protein stability index is 2.45 ± 0.54 under setting [1] and 2.06 ± 0.44 under setting [2].

On to YPEDSSWAAKAPGASSREEPPEEP [SPDEF], for which the protein stability index turned out to be 4.21 ± 0.43 under setting [1] and 4.64 ± 0.51 under setting [2].

YPIIFVYYLRKGKKINSNQLENEQ [SPANXN3]: the protein stability index by setting is: under setting [1], 2.37 ± 0.33; under setting [2], 2.14 ± 0.26.

Regarding YQILTLEKDQEQVVMNLDSRLLIF [GMCL1], the protein stability index reads like this: under setting [1], 2.77 ± 0.67; under setting [2], 2.66 ± 0.7.

In the case of YQLCHALRFLHENQLTHTDLKPEN [CLK3], the protein stability index is 4.62 ± 0.23 under setting [1] and 4.76 ± 0.37 under setting [2].

Turning to YQRNLPRPGQAPIGNPPVGPIGGM [ZNF207], the protein stability index came out at 2.87 ± 0.32 under setting [1] and 3.31 ± 0.41 under setting [2].

Regarding YQSGGRIRRPVNVPIDIFSEEIRF [KCNA3], the protein stability index reads like this: under setting [1], 2.49 ± 0.43; under setting [2], 3.11 ± 0.37.

In the case of YQVAALQGDLASLRAELQGHHAEK [TNFSF13B], the protein stability index is, setting by setting: under setting [1], 3.71 ± 0.14; under setting [2], 3.88 ± 0.099.

Consider YRHLLEGEDCKLPPQPCATACKPV [KRT36], for which the protein stability index runs as follows: under setting [1], 3.97 ± 0.2; under setting [2], 3.93 ± 0.11.

As to YRMRNVHPKPKLVRVLESLLVSLV [CLCN6], the protein stability index is, setting by setting: under setting [1], 2.44 ± 0.75; under setting [2], 2.18 ± 0.35.

Consider YSKPGLSMRLLESKKGLSFFAFEH [TCF25], for which the protein stability index was 2.12 ± 0.33 under setting [1] and 2.08 ± 0.38 under setting [2].

In the case of YTAQQDQELDIKKNERLWLLDDSK [NCK2], the protein stability index was 4.37 ± 0.27 under setting [1] and 4.65 ± 0.15 under setting [2].

Sequence YTFGSNQHGQLGTNTRRGSRAPCK [NEK8] yielded a protein stability index under setting [1] of 4.27 ± 0.52 and a protein stability index under setting [2] of 4.22 ± 0.39.

YTVNFLEAKEGDLHRIEIPFKFHM [CARM1] returned a protein stability index under setting [2] of 3.15 ± 1.1.

In the case of YTYRDYGHSSSRDDYPSRGYSDRD [RBMX], the protein stability index under setting [1] was found to be 3.94 ± 0.3 and the protein stability index under setting [2] stood at 4.02 ± 0.26.

As for YVRPERLSPISHGNTIALFFRSLL [TCF25], the protein stability index was determined as 2.59 ± 0.4 under setting [1] and 2.71 ± 0.42 under setting [2].

Turning to YVYFFCTVPEILVHNIVIFMRTSV [TMEM106C], the protein stability index is 3.13 ± 0.43 under setting [1] and 2.92 ± 0.37 under setting [2].

For YWDGSGHRRTVKMRKGNTMQQFLQ [FAM50A], the protein stability index under setting [1] was 2.74 ± 0.12 and the protein stability index under setting [2] was found to be 2.72 ± 0.24.
